Experimental data from the Immune Epitope Database (IEDB).

How the values were obtained:
[1] = target: HLA-A*32:01; test: IEDB peptide-MHC binding, purified MHC/competitive/radioactivity; filed as Kd, often an IC50 or EC50 that approximates it; ≥ and ≤ were set here for values at or beyond the usual limits of such assays
[2] = target: HLA-B*44:03; test: as above
[3] = target: HLA-A*68:02; test: as above
[4] = target: HLA-B*15:01; test: as above
[5] = target: HLA-A*30:02; test: as above
[6] = target: HLA-A*24:03; test: IEDB peptide-MHC binding, purified MHC/direct/fluorescence; filed as Kd, often an IC50 or EC50 that approximates it; ≥ and ≤ were set here for values at or beyond the usual limits of such assays
[7] = target: HLA-B*08:01; test: IEDB peptide-MHC binding, purified MHC/competitive/radioactivity; filed as Kd, often an IC50 or EC50 that approximates it; ≥ and ≤ were set here for values at or beyond the usual limits of such assays
[8] = target: HLA-B*35:01; test: as above
[9] = target: HLA-B*53:01; test: as above; settings: source organism: Dengue virus 1 Brazil/97-11/1997
[10] = target: HLA-A*26:01; test: as above
[11] = target: HLA-A*01:01; test: as above
[12] = target: HLA-B*51:01; test: IEDB peptide-MHC binding, purified MHC/competitive/fluorescence; filed as Kd, often an IC50 or EC50 that approximates it; ≥ and ≤ were set here for values at or beyond the usual limits of such assays; settings: source organism: Yersinia pestis Nepal516
[13] = target: HLA-A*02:03; test: IEDB peptide-MHC binding, purified MHC/competitive/radioactivity; filed as Kd, often an IC50 or EC50 that approximates it; ≥ and ≤ were set here for values at or beyond the usual limits of such assays; settings: source organism: Vaccinia virus WR
[14] = target: HLA-A*02:02; test: as above; settings: source organism: Vaccinia virus WR
[15] = target: HLA-A*02:06; test: as above; settings: source organism: Vaccinia virus WR
[16] = target: HLA-A*68:01; test: as above; settings: source organism: Vaccinia virus WR
[17] = target: HLA-A*33:01; test: as above; settings: source organism: Vaccinia virus WR
[18] = target: HLA-A*11:01; test: as above; settings: source organism: Vaccinia virus WR
[19] = target: HLA-A*31:01; test: as above; settings: source organism: Vaccinia virus WR
[20] = target: HLA-A*03:01; test: as above; settings: source organism: Vaccinia virus WR
[21] = target: HLA-A*69:01; test: IEDB peptide-MHC binding, purified MHC/direct/fluorescence; filed as Kd, often an IC50 or EC50 that approximates it; ≥ and ≤ were set here for values at or beyond the usual limits of such assays; settings: source organism: Pseudomonas putida
[22] = target: HLA-A*02:01; test: as above; settings: source organism: Pseudomonas putida
[23] = target: HLA-B*27:05; test: as above; settings: source organism: Pseudomonas putida
[24] = target: HLA-A*11:01; test: as above; settings: source organism: Pseudomonas putida
[25] = target: HLA-A*26:01; test: as above
[26] = target: HLA-B*58:01; test: as above; settings: source organism: Pseudomonas putida
[27] = target: HLA-B*15:01; test: as above; settings: source organism: Pseudomonas putida
[28] = target: HLA-B*08:01; test: as above; settings: source organism: Pseudomonas putida
[29] = target: HLA-B*40:01; test: as above; settings: source organism: Pseudomonas putida
[30] = target: HLA-A*01:01; test: as above; settings: source organism: Pseudomonas putida
[31] = target: HLA-A*31:01; test: as above; settings: source organism: Pseudomonas putida
[32] = target: HLA-A*03:01; test: as above; settings: source organism: Pseudomonas putida
[33] = target: HLA-B*07:02; test: as above; settings: source organism: Pseudomonas putida
[34] = target: HLA-B*51:01; test: IEDB peptide-MHC binding, purified MHC/competitive/radioactivity; filed as Kd, often an IC50 or EC50 that approximates it; ≥ and ≤ were set here for values at or beyond the usual limits of such assays; settings: source organism: Dengue virus 4 Philippines/H241/1956
[35] = source organism: Dengue virus 2 Jamaica/1409/1983
[36] = source organism: Dengue virus 3 Singapore/8120/1995
[37] = source organism: Dengue virus 4 Philippines/H241/1956
[38] = source organism: Vaccinia virus WR
[39] = source organism: Dengue virus 1 Brazil/97-11/1997
[40] = source organism: Dengue virus 2 16681-PDK53
[41] = source organism: Dengue virus 3 Martinique/1243/1999
[42] = source organism: Vaccinia virus Copenhagen
[43] = source organism: Dengue virus 4 Dominica/814669/1981
[44] = source organism: Dengue virus 1 Singapore/S275/1990

Work on WNSGHEWVTD yielded a Kd [1, 35] of at least 61.8 µM.
With KETACLGKAY the Kd [2, 36] was 0.123 µM.
With WTLYAVATTI the Kd [3, 37] was 0.01 µM.
ELNNTQCHI gave a Kd [4, 38] of 1.24 µM.
In the case of RYRGEDGCWY, the Kd [5, 35] is reported as 0.198 µM.
RFTPVKHEL gave a Kd ([6]; source organism: Vibrio parahaemolyticus) of 0.005 µM.
TLWAIINTI gave a Kd [1, 38] of 0.00152 µM.
For ELKLFNVTL, the Kd [7, 38] was 0.00468 µM.
Work on LAVSGVYPM yielded a Kd [8, 39] of 0.0167 µM, a Kd [4, 39] of 0.0664 µM and a Kd [9] of 0.851 µM.
RSWPLNEGI was tested, and the Kd [1, 37] was 0.491 µM.
In the case of IDKKGKVVGL, the Kd [7, 40] is reported as 13.7 µM.
For EARKTFVDL, the Kd [7, 35] was 0.57 µM.
For SPYNFFKRI, the Kd [7, 38] was 0.422 µM.
With ILVIFTVAI the Kd [1, 38] was 0.0153 µM.
Work on LIITKVFSF yielded a Kd [1, 38] of 0.0839 µM and a Kd [4, 38] of 0.00768 µM.
Sequence HTTERGGKAY has a Kd [10, 37] of 1.32 µM, a Kd [4, 37] of 0.0505 µM and a Kd [11, 37] of 4.31 µM.
Sequence AEWLWRTLGR has a Kd [2, 41] of 0.314 µM.
Work on QLQVTEREEV yielded a Kd ([3]; source organism: Homo sapiens) of at least 60 µM.
With FSFMYIESI the Kd [4, 38] was 0.191 µM.
ATAGLHLGF gave a Kd [1, 42] of 0.00169 µM.
TVTGGIFLFL showed a Kd [3, 35] of 0.0536 µM.
In the case of MVTHFDNTQV, the Kd [3, 37] is reported as 0.00999 µM.
LGKSEFQIY gave a Kd [5, 35] of at least 76.9 µM.
LPDTGSWGI gave a Kd [12] of at least 20 µM.
For GASRRSWPL, the Kd [7, 43] was 0.014 µM.
MRGAKRMAIL showed a Kd [7, 35] of 0.0542 µM.
Work on MMKERSTIL yielded a Kd [7, 38] of 0.0349 µM.
Sequence RTVFFVLMML has a Kd [3, 37] of 0.0179 µM.
PNTNRAWNSL was tested, and the Kd [1, 35] was 1.56 µM.
YISKVFEHV showed a Kd [4, 38] of 0.0942 µM.
MTDEQIYAF showed a Kd [1, 38] of 0.0177 µM.
With WLVLRINKAL the Kd ([3]; source organism: Homo sapiens) was 4.45 µM.
SASSMINGV showed a Kd [3, 41] of 0.0289 µM.
For ETPTWNRKEL, the Kd [3, 41] was 0.872 µM.
HTTERGGRAY gave a Kd [10, 43] of 0.345 µM, a Kd [4, 43] of 0.22 µM and a Kd [11, 43] of 0.145 µM.
Work on EETNMITLLV yielded a Kd [2, 37] of 0.614 µM.
For KIDNYVVKF, the Kd [1, 38] was 0.0194 µM.
RSISRTENF gave a Kd [4, 38] of 0.00477 µM.
GKKHMIAGVL showed a Kd [7, 36] of 11.9 µM.
With AVHQVFGSVY the Kd [4, 37] was 0.0011 µM.
AMEELPDTI was tested, and the Kd [1, 39] was at least 21.4 µM.
Sequence LGRNKRPRL has a Kd ([7]; source organism: Dengue virus 3 Sri Lanka/1266/2000) of 0.0427 µM.
In the case of LLFNSSFCI, the Kd [4, 38] is reported as 0.104 µM.
For MEAEGVITQ, the Kd [2, 37] was 8.98 µM.
In the case of VVQPENLEY, the Kd [5, 40] is reported as 2.04 µM and the Kd [11, 40] is reported as 0.381 µM.
With SVMNFIPII the Kd [1, 38] was 0.000604 µM, the Kd [13] was 0.00626 µM and the Kd [14] was 0.0132 µM. It also gave a Kd [15] of 0.00283 µM.
With LAMNSVFTF the Kd [1, 42] was 0.0161 µM.
LSPVRVPNY was tested, and the Kd [5, 35] was 0.0502 µM and the Kd [11, 35] was 5.42 µM.
Work on ILLKMVTHF yielded a Kd [4, 37] of 0.00172 µM.
MLHCYESYM showed a Kd [4, 38] of 0.097 µM.
Sequence ELCGAFLFY has a Kd [16] of 0.277 µM, a Kd [17] of 13.6 µM and a Kd [18] of 0.196 µM. For the same sequence, the Kd [4, 38] was 0.00747 µM, the Kd [19] was 1.03 µM and the Kd [20] was 0.156 µM.
In the case of FIWFIFHFV, the Kd ([7]; source organism: Vaccinia virus) is reported as 3.16 µM.
GWALGYLYF gave a Kd ([6]; source organism: Mycobacterium tuberculosis) of 0.0245 µM.
In the case of LENENILHG, the Kd [4, 42] is reported as 0.309 µM.
For TLKGMSYVM, the Kd [4, 44] was 0.0176 µM.
Sequence MSFSCIAIGI has a Kd [3, 41] of 0.00517 µM.
For FSQHNYRQGY, the Kd [5, 37] was 1.25 µM, the Kd [8, 37] was at least 45.4 µM and the Kd [4, 37] was 0.135 µM. It also gave a Kd [11, 37] of 0.21 µM.
SSMRKTDWL showed a Kd [7, 41] of 0.24 µM.
FVKRKKLDI showed a Kd [7, 38] of 0.00298 µM.
LTIESVNAL gave a Kd [1, 42] of 0.17 µM.
NEMVLLQMED showed a Kd [2, 35] of 6.08 µM.
In the case of DTMTYKCPRI, the Kd [3, 39] is reported as 0.064 µM.
SAKQLRTRI gave a Kd [7, 38] of 0.201 µM.
ITNELNYVL showed a Kd [1, 37] of 0.0746 µM.
With IISSTPFAEY the Kd [5, 37] was 0.0369 µM and the Kd [11, 37] was 3.44 µM.
GGPISQHNY showed a Kd [5, 39] of 0.473 µM.
DLSNSMRDF was tested, and the Kd [21] was at least 20 µM, the Kd [22] was at least 20 µM and the Kd [23] was at least 20 µM. It also gave a Kd [24] of at least 20 µM, a Kd ([25]; source organism: Pseudomonas putida) of 4.52 µM and a Kd [26] of at least 20 µM. For the same sequence, the Kd [27] was at least 20 µM, the Kd [28] was at least 20 µM and the Kd [29] was at least 20 µM. It also gave a Kd [30] of at least 20 µM, a Kd [31] of at least 20 µM and a Kd [32] of at least 20 µM. The Kd [33] was at least 20 µM.
ITYCLVTHM gave a Kd [4, 38] of 0.0253 µM.
TSKKRSWPL was tested, and the Kd [7, 35] was 0.00582 µM.
EEISTSLSF showed a Kd [4, 38] of 0.00205 µM.
NPQTKQMAF showed a Kd [7, 38] of 0.0143 µM.
With KTKLNDWDFV the Kd [1, 41] was 18.5 µM.
ETIDTIIDQ was tested, and the Kd ([25]; source organism: Mammarenavirus lassaense) was 0.954 µM.
Sequence LSIPPTAGIL has a Kd [34] of 9.47 µM and a Kd [7, 37] of 2.34 µM.
With WMINIMIHM the Kd [4, 38] was 0.667 µM.
With MLLVLCAVQL the Kd [7, 41] was 5.97 µM.
NEMVLLTMKE was tested, and the Kd [2, 39] was 5.67 µM.
TWLPVLLGSL gave a Kd [7, 44] of 9.43 µM.
STFSISSIF was tested, and the Kd [1, 42] was 0.00105 µM.
Sequence PVPGDWLYF has a Kd ([25]; source organism: Mycobacterium tuberculosis str. Haarlem) of 1.29 µM.
Work on LGSSFCLHA yielded a Kd [4, 38] of at least 25.5 µM.
